# Laboratory results published in patent US20250215412A1 (NOVOZYMES A S, published 2025).
# Where a chain is given by its changes, count along the chain named. Names may count otherwise.
# T1: Chryseobacterium sp-62563 deamidase polypeptide (second polypeptide, deamidase domain), wildtype (Chryseobacterium sp-62563)
# T1 sequence: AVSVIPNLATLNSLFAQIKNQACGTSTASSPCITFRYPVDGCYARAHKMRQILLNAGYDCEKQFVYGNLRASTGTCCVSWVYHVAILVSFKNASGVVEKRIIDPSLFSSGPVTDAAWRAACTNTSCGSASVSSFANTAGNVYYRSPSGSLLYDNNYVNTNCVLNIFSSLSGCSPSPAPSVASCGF
# B1: Chryseobacterium sp-62563 propeptide Y94A (protein)
# chain: NQDPNLVAKESNETAMKDFGKTVPVGIEKEDGKFKISFMVTAQPYEIKDSKENAAYISMIKTAVENETPIHVFLKANTNEIAKVDKATDDDIRAFKSVFTKEVKEENRK
# B2: Chryseobacterium sp-62563 propeptide Y94E (protein)
# chain: B1 chain with A94E
# B3: Chryseobacterium sp-62563 propeptide Y94I (protein)
# chain: B1 chain with A94I
# B4: Chryseobacterium sp-62563 propeptide Y94P (protein)
# chain: B1 chain with A94P
# B5: Chryseobacterium sp-62563 propeptide Y94Q (protein)
# chain: B1 chain with A94Q
# B6: Chryseobacterium sp-62563 propeptide Y94T (protein)
# chain: B1 chain with A94T
# B7: Chryseobacterium sp-62563 propeptide F95D (protein)
# chain: B1 chain with A94Y, F95D
# B8: Chryseobacterium sp-62563 propeptide F95G (protein)
# chain: B1 chain with A94Y, F95G
# B9: Chryseobacterium sp-62563 propeptide V98P (protein)
# chain: B1 chain with A94Y, V98P
# B10: Chryseobacterium sp-62563 propeptide V98Y (protein)
# chain: B1 chain with A94Y, V98Y
# B11: Chryseobacterium sp-62563 propeptide F99C (protein)
# chain: B1 chain with A94Y, F99C
# B12: Chryseobacterium sp-62563 propeptide F99D (protein)
# chain: B1 chain with A94Y, F99D
# B13: Chryseobacterium sp-62563 propeptide Y45I (protein)
# chain: B1 chain with Y45I, A94Y
# B14: Chryseobacterium sp-62563 propeptide F99K (protein)
# chain: B1 chain with A94Y, F99K
# B15: Chryseobacterium sp-62563 propeptide F99Q (protein)
# chain: B1 chain with A94Y, F99Q
# B16: Chryseobacterium sp-62563 propeptide F99R (protein)
# chain: B1 chain with A94Y, F99R
# B17: Chryseobacterium sp-62563 propeptide Y45M (protein)
# chain: B1 chain with Y45M, A94Y
# B18: Chryseobacterium sp-62563 propeptide F99Y (protein)
# chain: B1 chain with A94Y, F99Y
# B19: Chryseobacterium sp-62563 propeptide F99W (protein)
# chain: B1 chain with A94Y, F99W
# Molecular target: T1, Chryseobacterium sp-62563 deamidase polypeptide (second polypeptide, deamidase domain), wildtype (Chryseobacterium sp-62563)
# Test: cell-based or functional assay
Binder,Leakage activity,Relative activity of maturated deamidase (% initial rate),NanoDSF thermal unfolding temperature
B1,0%,72,
B2,0%,,
B3,0%,60,
B4,3%,76,75.2 ° C.
B5,0%,,
B6,0%,> 100,
B7,7%,44,
B8,0%,91,
B9,2%,> 100,
B10,0%,31,
B11,0%,52,
B12,9%,69,
B13,,> 100,76.4 ° C.
B14,4%,> 100,75.4 ° C.
B15,4%,48,
B16,0%,76,
B17,,40,79 ° C.
B18,,85,
B19,,81,
